Assay results reported in patent US20120202890A1, “POLYMER-CARBOHYDRATE-LIPID CONJUGATES” (priority 2011, published 2012).
Ends that are not written are not given here.

Tests used:
[1] = Body weight change as evidence of renal toxicity of cisplatin, intravenous dosing; format: in vivo, mice (B6D2F1); details: animal experiments, mice
Experimental: Groups of four each of mixed gender mice (B6D2F1), […] and weights of 22 to 30 grams) were studied in duplicate. Each mouse was administrated cisplatin intravenously at a dose of 10 mg/kg (Table 16) and Intraperitoneally at a dose of 15 mg/kg (Table 17). The changes in body weights observed can be used as a direct evident in the renal toxicity effects.

[2] = Physical state of Propofol formulations with PEG-carbohydrate-lipid (solution, suspension or emulsion); format: physicochemical
Experimental: A propofol solution suitable for intravenous delivery is prepared as follows. 5% (w/v) of OAPDL-PEG in Saline was added to a vessel equipped with a mixer propeller and 2% (w/v) of Propofol was added with constant mixing at ambient room temperature. Mixing was continued until the drug was visually dispersed. Equal volume of Saline was added to the vessel with adequate mixing. Mixing continued for another 30 minutes or until a homogenous solution was achieved. A sample formulation is described in Table 15.
In Example 16, less concentrated or less purified PEG-sugar-lipid will create a suspension instead of an aqueous solution. For instance, the final concentration of the PEG-carbohydrate-lipid is less than 1.5% (w/v), it will form a suspension. Similarly when the oligomer purity is 80% or less, regardless the concentration of the PEG-carbohydrate-lipid, an emulsified solution will be observed instead of a transparent solution.
Propofol as the active agent was formulated with various polymer-lipid-carbohydrate conjugates described in the present invention. At a lower of the polymer-lipid-carbohydrate conjugate concentration, i.e., OAPDL-11 (<1.5%), the formulation is a microemulsion and at a higher OAPDL-11 concentration (≧2.2%), it is a true solution.
A solution is defined as a homogenous mixture of substances with variable composition. […]

[3] = Stability of peptide solution by HPLC assay; format: physicochemical
Experimental: Stability experiment was carried out by HPLC assay and a custom synthesized thermolabile peptide with the following sequence was used as the model compound: […] The peptide was added to selected media and sonicated for 10 minutes. The sample solutions were filtered through passed through 0.22-μm pore-size filter to remove dust particles before the HPLC assay. A Simadzu 10avp chromatography system with a Kinetex C18 (2.6 μm, 100×4.6 mm i.d.) column (Phenomenex, Torrance, Calif.) were used. The solutions were kept at 25° C. in the Autosampler during the assay and the mobile phase consisted of 0.1% of trifluoroacetic acid and acetonitrile mixture (v/v, 80/20) with a flow rate of 1.0 mL/min. The peptide peak was monitored at 210 nm and quantitated using external standard sets of the peptide.
The plots were the % recovery vs. time.

| Substance | intravenous hydration effect for reducing renal toxicity of cisplatin [1] | physical state of Propofol formulation ([2]; higher OAPDL-11 concentration (≧2.2%)) | physical state of Propofol formulation ([2]; lower OAPDL-11 concentration (<1.5%)) | peptide degradation ([3]; in a 50 mM of phosphate buffer, in 24 hours) | peptide still remaining ([3]; in a 2% of PEG-carbohydrate-lipid, after 24 hours) |
| --- | --- | --- | --- | --- | --- |
| oleoyi-N-(3-aminopropyl)propane-1,3-diamine-Undecaethylene glycol methyl ether Lactobionate [OAPDL-11] | better than free sugars | true solution | microemulsion |  |  |
| FPKLSHGCNKHSRKHPYMTF [peptide, custom synthesized thermolabile peptide used as the model compound] |  |  |  | degraded significantly | more than 97% |
